Test results reported in patent US20130267584.

Assays:
[1] = biological target: full-length TFPI (fl-TFPI, TFPI alpha) (Homo sapiens) (UniProt P10646); experiment: inhibition; conditions: PEG
[2] = biological target: full-length TFPI (fl-TFPI, TFPI alpha) (Homo sapiens) (UniProt P10646); experiment: SPR; conditions: biotinylated, nucleotide sequence identical to BAX 499; ka 6.7e7 1/Ms, kd 6.6e-4 1/s; 37 C, HBS pH 7.4, 0.1% P20, 3 mM CaCl2; aptamer immobilized

full-length TFPI (fl-TFPI, TFPI alpha) (Homo sapiens), sequence (P10646 29-304): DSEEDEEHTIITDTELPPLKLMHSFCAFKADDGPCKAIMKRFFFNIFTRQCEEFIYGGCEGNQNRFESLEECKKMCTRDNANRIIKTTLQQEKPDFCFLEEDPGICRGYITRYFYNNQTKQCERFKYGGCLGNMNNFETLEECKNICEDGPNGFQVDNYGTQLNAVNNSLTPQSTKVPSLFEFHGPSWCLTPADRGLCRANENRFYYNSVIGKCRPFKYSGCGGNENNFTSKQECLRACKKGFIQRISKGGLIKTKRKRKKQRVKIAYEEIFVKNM

| Substance | Kd ([1]; apparent Kd from relief of TFPI inhibition of TF/FVIIa, 12 nM TFPI, FXa independent, TFPI source not stated in this example) [nM] | activity ([1]; aptamer giving about 50% recovery of extrinsic FXase activity with 3 nM TFPI, 75-80% recovery at saturation) [nM] | EC50 ([1]; extrinsic tenase assay at 0.25 nM TFPI, maximal reversal 58% at 1000 nM, EC50 rises with TFPI level) [nM] | Kd [2] [nM] |
| --- | --- | --- | --- | --- |
| BAX 499 | 1.2 | 50 | 12 |  |
| ARC28635 |  |  |  | 0.015 |
